Test results: the supplement of paper PMC9112550, “Optimization of the antimicrobial peptide Bac7 by deep mutational scanning” (BMC Biology, 2022)

These sequences were tested on Escherichia coli TOP10 (assay: shrunken log2 fold change of peptide-encoding DNA abundance (4.5 h post-induction vs induction); higher = less antimicrobial activity (less host growth inhibition)). Details: time post-induction: 4.5 h; library: site-saturation at positions 5, 18, 19, 20.
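Also: peptides expressed intracellularly from a pBAD plasmid library in pooled LB shake-flask culture, induced with 0.3% L-arabinose, DNA abundance read by NGS, three biological replicates, DESeq2 with apeglm shrinkage.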

Row | Sequence | shrunken log2 fold change
1 | RRIRNRPPRLPRPRPRPNDWPRP | 0.0943
2 | RRIRFRPPRLPRPRPRPVKAPRP | 0.0979
3 | RRIRNRPPRLPRPRPRPDRFPRP | -0.148
4 | RRIRARPPRLPRPRPRPKFIPRP | -0.135
5 | RRIRNRPPRLPRPRPRPAQAPRP | -0.0253
6 | RRIRMRPPRLPRPRPRPIACPRP | 0.106
7 | RRIRLRPPRLPRPRPRPHDWPRP | 0.184
8 | RRIRWRPPRLPRPRPRPDSKPRP | -0.133
9 | RRIRYRPPRLPRPRPRPQQVPRP | -0.0456
10 | RRIRNRPPRLPRPRPRPMCHPRP | 0.0429
11 | RRIRHRPPRLPRPRPRPYKMPRP | -0.226
12 | RRIRSRPPRLPRPRPRPSDPPRP | -0.397
13 | RRIRWRPPRLPRPRPRPVIFPRP | 1.32
14 | RRIRTRPPRLPRPRPRPHSVPRP | 0.0184
15 | RRIRTRPPRLPRPRPRPYKMPRP | -0.0239
16 | RRIRPRPPRLPRPRPRPDPRPRP | 0.649
17 | RRIRYRPPRLPRPRPRPAWFPRP | -0.0816
18 | RRIRLRPPRLPRPRPRPMCTPRP | -0.0698
19 | RRIRGRPPRLPRPRPRPFFDPRP | 0.541
20 | RRIRERPPRLPRPRPRPWVAPRP | -0.00272
21 | RRIRFRPPRLPRPRPRPAHAPRP | 0.0606
22 | RRIRTRPPRLPRPRPRPKWCPRP | 0.00669
23 | RRIRQRPPRLPRPRPRPYHCPRP | -0.0107
24 | RRIRSRPPRLPRPRPRPNMWPRP | -0.311
25 | RRIRARPPRLPRPRPRPCRDPRP | -0.0411

Row | Sequence | shrunken log2 fold change
26 | RRIRPRPPRLPRPRPRPQLLPRP | 0.271
27 | RRIRNRPPRLPRPRPRPQAIPRP | 0.00297
28 | RRIRSRPPRLPRPRPRPTCFPRP | 0.284
29 | RRIRGRPPRLPRPRPRPYQCPRP | -0.0235
30 | RRIRTRPPRLPRPRPRPICYPRP | -0.387
31 | RRIRGRPPRLPRPRPRPEMPPRP | 1.48
32 | RRIRKRPPRLPRPRPRPSMVPRP | -0.13
33 | RRIRWRPPRLPRPRPRPGKKPRP | 0.375
34 | RRIRQRPPRLPRPRPRPRIQPRP | -0.0402
35 | RRIRIRPPRLPRPRPRPFITPRP | -0.626
36 | RRIRLRPPRLPRPRPRPNRPPRP | -0.0609
37 | RRIRMRPPRLPRPRPRPALNPRP | 0.759
38 | RRIRMRPPRLPRPRPRPKWSPRP | 0.894
39 | RRIRFRPPRLPRPRPRPGRRPRP | 0.334
40 | RRIRWRPPRLPRPRPRPMPVPRP | 0.346
41 | RRIRDRPPRLPRPRPRPAHNPRP | -0.206
42 | RRIRARPPRLPRPRPRPAAKPRP | 1.04
43 | RRIRNRPPRLPRPRPRPRESPRP | -0.0379
44 | RRIRKRPPRLPRPRPRPDKLPRP | 0.367
45 | RRIRDRPPRLPRPRPRPCDEPRP | -0.00174
46 | RRIRNRPPRLPRPRPRPRTTPRP | -0.0126
47 | RRIRPRPPRLPRPRPRPPVSPRP | 0.0379
48 | RRIRQRPPRLPRPRPRPAVEPRP | 0.149
49 | RRIRPRPPRLPRPRPRPNPTPRP | 0.0721
50 | RRIRPRPPRLPRPRPRPIVYPRP | 0.175

Row | Sequence | shrunken log2 fold change
51 | RRIRDRPPRLPRPRPRPKKHPRP | -0.0344
52 | RRIRFRPPRLPRPRPRPHARPRP | 0.285
53 | RRIRNRPPRLPRPRPRPFQVPRP | -0.134
54 | RRIRMRPPRLPRPRPRPRVMPRP | 0.832
55 | RRIRNRPPRLPRPRPRPYEEPRP | -0.277
56 | RRIRYRPPRLPRPRPRPPITPRP | -0.834
57 | RRIRHRPPRLPRPRPRPTPYPRP | -0.0416
58 | RRIRLRPPRLPRPRPRPEARPRP | 0.142
59 | RRIRRRPPRLPRPRPRPQRRPRP | 0.482
60 | RRIRSRPPRLPRPRPRPRSCPRP | 0.108
61 | RRIRMRPPRLPRPRPRPATPPRP | 1.24
62 | RRIRNRPPRLPRPRPRPHKQPRP | -0.359
63 | RRIRCRPPRLPRPRPRPVFCPRP | -0.131
64 | RRIRYRPPRLPRPRPRPHESPRP | 0.00952
65 | RRIRFRPPRLPRPRPRPRTDPRP | -0.0313
66 | RRIRMRPPRLPRPRPRPLEAPRP | 2.46
67 | RRIRFRPPRLPRPRPRPTYDPRP | -0.604
68 | RRIRPRPPRLPRPRPRPFSTPRP | -0.317
69 | RRIRHRPPRLPRPRPRPWGCPRP | -0.106
70 | RRIRPRPPRLPRPRPRPHNPPRP | -0.0801
71 | RRIRSRPPRLPRPRPRPNWPPRP | 0.278
72 | RRIRLRPPRLPRPRPRPDLQPRP | -0.0184
73 | RRIRNRPPRLPRPRPRPEAHPRP | -0.0208
74 | RRIRVRPPRLPRPRPRPLLWPRP | 0.145
75 | RRIRERPPRLPRPRPRPLKRPRP | -0.28

Row | Sequence | shrunken log2 fold change
76 | RRIRCRPPRLPRPRPRPDFIPRP | -0.383
77 | RRIRERPPRLPRPRPRPFKQPRP | -0.0138
78 | RRIRIRPPRLPRPRPRPEDAPRP | -0.0131
79 | RRIRSRPPRLPRPRPRPWIMPRP | -0.572
80 | RRIRFRPPRLPRPRPRPADDPRP | -0.053
81 | RRIRFRPPRLPRPRPRPGADPRP | 0.187
82 | RRIRRRPPRLPRPRPRPSYHPRP | -0.368
83 | RRIRNRPPRLPRPRPRPAFMPRP | 0.0417
84 | RRIRARPPRLPRPRPRPMYMPRP | -0.354
85 | RRIRARPPRLPRPRPRPVKSPRP | 0.19
86 | RRIRFRPPRLPRPRPRPRNFPRP | -0.0477
87 | RRIRFRPPRLPRPRPRPREEPRP | -0.0431
88 | RRIRCRPPRLPRPRPRPLEAPRP | 0.203
89 | RRIRFRPPRLPRPRPRPQPVPRP | 0.356
90 | RRIRERPPRLPRPRPRPDHWPRP | 0.0945
91 | RRIRRRPPRLPRPRPRPDQDPRP | -0.0033
92 | RRIRRRPPRLPRPRPRPLEDPRP | -0.0161
93 | RRIRNRPPRLPRPRPRPAFHPRP | -0.436
94 | RRIRRRPPRLPRPRPRPSLAPRP | 0.89
95 | RRIRWRPPRLPRPRPRPFLDPRP | -0.233
96 | RRIRERPPRLPRPRPRPHKGPRP | -0.194
97 | RRIRIRPPRLPRPRPRPKEAPRP | 0.0518
98 | RRIRSRPPRLPRPRPRPKWAPRP | -0.117
99 | RRIRARPPRLPRPRPRPTGLPRP | 0.298
100 | RRIRGRPPRLPRPRPRPYMNPRP | -0.23

Row | Sequence | shrunken log2 fold change
101 | RRIRDRPPRLPRPRPRPEFYPRP | 0.475
102 | RRIRPRPPRLPRPRPRPGWTPRP | 0.235
103 | RRIRMRPPRLPRPRPRPTADPRP | 2.84
104 | RRIRERPPRLPRPRPRPHDQPRP | 0.0804
105 | RRIRVRPPRLPRPRPRPADHPRP | 0.206
106 | RRIRDRPPRLPRPRPRPFDNPRP | 0.0553
107 | RRIRRRPPRLPRPRPRPYWWPRP | -0.0898
108 | RRIRCRPPRLPRPRPRPFTYPRP | -0.631
109 | RRIRFRPPRLPRPRPRPVNKPRP | -0.492
110 | RRIRGRPPRLPRPRPRPPIPPRP | 0.449
111 | RRIRLRPPRLPRPRPRPVVHPRP | 0.93
112 | RRIRWRPPRLPRPRPRPGAIPRP | -0.096
113 | RRIRKRPPRLPRPRPRPQQWPRP | 0.105
114 | RRIRWRPPRLPRPRPRPCTGPRP | -0.0547
115 | RRIRYRPPRLPRPRPRPNSAPRP | -0.805
116 | RRIRNRPPRLPRPRPRPPFEPRP | 0.128
117 | RRIRCRPPRLPRPRPRPKSVPRP | 0.0362
118 | RRIRSRPPRLPRPRPRPWCPPRP | -0.549
119 | RRIRPRPPRLPRPRPRPMIVPRP | -1.14
120 | RRIRHRPPRLPRPRPRPNKTPRP | -0.0741
121 | RRIRDRPPRLPRPRPRPFGCPRP | -0.109
122 | RRIRMRPPRLPRPRPRPYFIPRP | -0.413
123 | RRIRWRPPRLPRPRPRPRCYPRP | -0.0698
124 | RRIRWRPPRLPRPRPRPEYCPRP | 1.23
125 | RRIRERPPRLPRPRPRPGAEPRP | 0.372

Row | Sequence | shrunken log2 fold change
126 | RRIRTRPPRLPRPRPRPVISPRP | -0.21
127 | RRIRYRPPRLPRPRPRPLKLPRP | -0.772
128 | RRIRRRPPRLPRPRPRPTHVPRP | 0.427
129 | RRIRMRPPRLPRPRPRPWECPRP | 1.1
130 | RRIRVRPPRLPRPRPRPMGVPRP | -0.0267
131 | RRIRLRPPRLPRPRPRPFPAPRP | -0.094
132 | RRIRERPPRLPRPRPRPPVEPRP | 0.268
133 | RRIRKRPPRLPRPRPRPFPCPRP | 0.0314
134 | RRIRGRPPRLPRPRPRPLITPRP | 0.676
135 | RRIRVRPPRLPRPRPRPDGIPRP | -0.173
136 | RRIRIRPPRLPRPRPRPVDKPRP | 0.0266
137 | RRIRSRPPRLPRPRPRPIQRPRP | 0.0978
138 | RRIRQRPPRLPRPRPRPHTYPRP | -0.753
139 | RRIRLRPPRLPRPRPRPRTYPRP | -0.319
140 | RRIRKRPPRLPRPRPRPPTYPRP | 0.0129
141 | RRIRGRPPRLPRPRPRPIMWPRP | 0.39
142 | RRIRSRPPRLPRPRPRPEIPPRP | 2.86
143 | RRIRYRPPRLPRPRPRPYWYPRP | -0.322
144 | RRIRHRPPRLPRPRPRPGQYPRP | -0.0767
145 | RRIRVRPPRLPRPRPRPAAPPRP | 0.452
146 | RRIRLRPPRLPRPRPRPDFCPRP | -0.0853
147 | RRIRCRPPRLPRPRPRPGTMPRP | 0.0719
148 | RRIRYRPPRLPRPRPRPNHSPRP | -0.498
149 | RRIRKRPPRLPRPRPRPGCPPRP | 0.0566
150 | RRIRHRPPRLPRPRPRPIDEPRP | 0.142
